# Assays:
# [1] = target: T1, human PDGF-BB (platelet derived growth factor B homodimer) (human, UniProt P01127 82-190); test: SPR; Biacore T200, off-rate screen; antibody captured (~70 to 100 RU) by anti-human IgG amine-coupled to a CM5 chip; human PDGF-BB injected at a single 2.5 nM for 170 s, dissociation 300 s; HBS-EP+ N (10 mM HEPES, 500 mM NaCl, 3 mM EDTA, 0.05% Tween20, pH 7.4); 25 C; details: both partners purified
# T1 construct: Platelet derived growth factor B, human, homodimer, bought from PeproTech; the printed catalogue number may stand for 100-14B; source: bought: PeproTech, Catalog 100-148
# T1 sequence (P01127 82-190): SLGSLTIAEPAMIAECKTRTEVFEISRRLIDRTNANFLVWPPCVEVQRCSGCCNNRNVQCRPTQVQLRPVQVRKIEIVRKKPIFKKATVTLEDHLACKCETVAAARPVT
# [2] = AC-SINS; self-association assay, as in Avery et al. [35]; score = smoothed max absorbance of the antibody sample minus that of the average blank (PBS); scores >=11 considered high; details: other: AC-SINS
# [3] = target: T1, human PDGF-BB (platelet derived growth …); test: SPR; Biacore T200, full kinetics; antibody captured by anti-human IgG on a CM5 chip; human PDGF-BB at 20, 10, 5, 2.5 and 1.25 nM, 50 s injection; HBS-EP+ N; 25 C; 1:1 Langmuir fit; details: both partners purified
# [4] = target: T2, human PDGF-BB (platelet derived growth factor B homodimer) (human, UniProt P01127); test: as above; details: both partners purified
# T2 construct: Platelet derived growth factor B, human, homodimer, bought from PeproTech; the printed catalogue number may stand for 100-14B; source: bought: PeproTech, Catalog 100-148
# T2 sequence (P01127 82-190): as above
# [5] = target: T2, human PDGF-BB (platelet derived growth …); test: SPR; Biacore T200, off-rate screen; antibody captured (~70 to 100 RU) by anti-human IgG amine-coupled to a CM5 chip; human PDGF-BB injected at a single 2.5 nM for 170 s, dissociation 300 s; HBS-EP+ N (10 mM HEPES, 500 mM NaCl, 3 mM EDTA, 0.05% Tween20, pH 7.4); 25 C; details: both partners purified
# [6] = AC-SINS; self-association assay, as in Avery et al. [35]; score = smoothed max absorbance of the antibody sample minus that of the average blank (PBS); scores >=11 considered high; details: other: AC-SINS; remark: listed apart in the source
# [7] = target: T2, human PDGF-BB (platelet derived growth …); test: SPR; Biacore T200, full kinetics; antibody captured by anti-human IgG on a CM5 chip; human PDGF-BB at 20, 10, 5, 2.5 and 1.25 nM, 50 s injection; HBS-EP+ N; 25 C; 1:1 Langmuir fit; details: both partners purified; remark: listed apart in the source
binder,measurement,setting,value
"AB-001 (antibody, V domains shown, VH of AB-001; VL of AB-001; only the variable regions are written; also called parental AB-001; parental clone; source: HEK293, transient, purified from conditioned medium (protein A, TMAE, HIC)) VH: EVQLLESGGGLVQPGGSLRLSCAASGFTFSSYAMSWVRQAPGKGLEWVSYISDDGSLKYYADSVKGRFTISRDNSKNTLYLQMNSLRAEDTAVYYCAKHPYWYGGQLDLWGQGTLVTVSS VL: SYELTQPPSVSVSPGQTASITCSGDSLGSYFVHWYQQKPGQSPVLVIYDDSNRPSGIPERFSGSNSGNTATLTISGTQAMDEADYYCSAFTHNSDVFGGGTKLTVL",koff,[1],0.000319 s⁻¹
same,AC-SINS Score,[2],22
same,Kd,[3],94.8 ± 29.2 pM
same,koff,[3],0.000457 s⁻¹
same,kon,[3],5.05e+06 M⁻¹ s⁻¹
"R2-006 (antibody, V domains shown, as the VH of m20 (R2-001_HC); as the VL of m20 (R2-001_LC) with S52K (Kabat); only the variable regions are written; source: HEK293, transient, purified from conditioned medium (protein A, TMAE, HIC)) VH: EVQLLQSGGGLVKPGGSLRLSCAASGFTFSSYAMSWVRQAPGKGLEWVSYISDDGSLKYYADSVKGRFTISRDNSKNTLYLQMNSLRAEDTAVYYCARHPYWYGGQLDLWGQGTLVTVSS VL: SYVLTQPPSVSVAPGKTARITCSGDSLGSYFVHWYQQKPGQSPVLVIYDDKKRPSGIPERFSGSNSGNTATLTISGTQAMDEADYYCSAFTHNSDVFGGGTKLTVL",Kd,[4],103 pM
same,koff,[5],0.000366 s⁻¹
same,AC-SINS Score,[6],25
same,Kd,[7],88.8 ± 29.5 pM
same,koff,[7],0.000336 s⁻¹
same,kon,[7],3.97e+06 M⁻¹ s⁻¹
"R2-012 (antibody, V domains shown, as the VH of m20 (R2-001_HC) with D52aK; as the VL of m20 (R2-001_LC); only the variable regions are written; source: HEK293, transient, purified from conditioned medium (protein A, TMAE, HIC)) VH: EVQLLQSGGGLVKPGGSLRLSCAASGFTFSSYAMSWVRQAPGKGLEWVSYISKDGSLKYYADSVKGRFTISRDNSKNTLYLQMNSLRAEDTAVYYCARHPYWYGGQLDLWGQGTLVTVSS VL: SYVLTQPPSVSVAPGKTARITCSGDSLGSYFVHWYQQKPGQSPVLVIYDDSKRPSGIPERFSGSNSGNTATLTISGTQAMDEADYYCSAFTHNSDVFGGGTKLTVL",koff,[5],0.000347 s⁻¹
"R2-016 (antibody, V domains shown, as the VH of m20 (R2-001_HC) with D101N; as the VL of m20 (R2-001_LC); only the variable regions are written; source: HEK293, transient, purified from conditioned medium (protein A, TMAE, HIC)) VH: EVQLLQSGGGLVKPGGSLRLSCAASGFTFSSYAMSWVRQAPGKGLEWVSYISDDGSLKYYADSVKGRFTISRDNSKNTLYLQMNSLRAEDTAVYYCARHPYWYGGQLNLWGQGTLVTVSS VL: SYVLTQPPSVSVAPGKTARITCSGDSLGSYFVHWYQQKPGQSPVLVIYDDSKRPSGIPERFSGSNSGNTATLTISGTQAMDEADYYCSAFTHNSDVFGGGTKLTVL",koff,[5],0.000266 s⁻¹
"R2-001 (antibody, V domains shown, R2-001_HC: as the VH of m17 (R1-016), on which R2-001 was built; R2-001_LC: as the VL of m17 (R1-016) with FW1 changed to that of IGLV3-21*01; only the variable regions are written; also called round 2 parental R2-001; R2-001_HC with R2-001_LC; source: HEK293, transient, purified from conditioned medium (protein A, TMAE, HIC)) VH: EVQLLQSGGGLVKPGGSLRLSCAASGFTFSSYAMSWVRQAPGKGLEWVSYISDDGSLKYYADSVKGRFTISRDNSKNTLYLQMNSLRAEDTAVYYCARHPYWYGGQLDLWGQGTLVTVSS VL: SYVLTQPPSVSVAPGKTARITCSGDSLGSYFVHWYQQKPGQSPVLVIYDDSKRPSGIPERFSGSNSGNTATLTISGTQAMDEADYYCSAFTHNSDVFGGGTKLTVL",koff,[5],0.000417 s⁻¹
same,AC-SINS Score,[6],24
same,Kd,[7],102 ± 32.3 pM
same,koff,[7],0.000292 s⁻¹
same,kon,[7],3.09e+06 M⁻¹ s⁻¹
"R2-013 (antibody, V domains shown, as the VH of m20 (R2-001_HC) with D52aN; as the VL of m20 (R2-001_LC); only the variable regions are written; source: HEK293, transient, purified from conditioned medium (protein A, TMAE, HIC)) VH: EVQLLQSGGGLVKPGGSLRLSCAASGFTFSSYAMSWVRQAPGKGLEWVSYISNDGSLKYYADSVKGRFTISRDNSKNTLYLQMNSLRAEDTAVYYCARHPYWYGGQLDLWGQGTLVTVSS VL: SYVLTQPPSVSVAPGKTARITCSGDSLGSYFVHWYQQKPGQSPVLVIYDDSKRPSGIPERFSGSNSGNTATLTISGTQAMDEADYYCSAFTHNSDVFGGGTKLTVL",koff,[5],0.000344 s⁻¹
"R2-018 (antibody, V domains shown, as the VH of m20 (R2-001_HC); as the VL of m20 (R2-001_LC) with D26N (Kabat); only the variable regions are written; source: HEK293, transient, purified from conditioned medium (protein A, TMAE, HIC)) VH: EVQLLQSGGGLVKPGGSLRLSCAASGFTFSSYAMSWVRQAPGKGLEWVSYISDDGSLKYYADSVKGRFTISRDNSKNTLYLQMNSLRAEDTAVYYCARHPYWYGGQLDLWGQGTLVTVSS VL: SYVLTQPPSVSVAPGKTARITCSGNSLGSYFVHWYQQKPGQSPVLVIYDDSKRPSGIPERFSGSNSGNTATLTISGTQAMDEADYYCSAFTHNSDVFGGGTKLTVL",koff,[5],0.000386 s⁻¹

# Reference: article PMC7205207, “Modeling and mitigation of high-concentration antibody viscosity through structure-based computer-aided protein design” (PLoS ONE, 2020)
